Measured values taken from patent US20090053213A1.

Experiments:
human GM-CSF (human) [1] = target: human GM-CSF (human) (UniProt P04141); assay: FACS receptor inhibition assay: inhibition of binding of 0.5 µg/ml biotinylated GM-CSF to GM-CSF receptor alpha on CHO-GMRa#11 cells
human GM-CSF (human) [2] = target: human GM-CSF (human) (UniProt P04141); assay: cell-based or functional assay
[3] = target: macaca mulatta (rhesus) GM-CSF (Macaca mulatta (rhesus)); assay: cell-based or functional assay
[4] = target: human GM-CSF receptor alpha chain (human) (UniProt P15509); assay: FACS on CHO-GMRa#11 cells, MAB1006 at 1 µg/ml, R-PE anti-mouse secondary, FL2 channel
human GM-CSF receptor alpha chain (human), sequence (P15509 23-400): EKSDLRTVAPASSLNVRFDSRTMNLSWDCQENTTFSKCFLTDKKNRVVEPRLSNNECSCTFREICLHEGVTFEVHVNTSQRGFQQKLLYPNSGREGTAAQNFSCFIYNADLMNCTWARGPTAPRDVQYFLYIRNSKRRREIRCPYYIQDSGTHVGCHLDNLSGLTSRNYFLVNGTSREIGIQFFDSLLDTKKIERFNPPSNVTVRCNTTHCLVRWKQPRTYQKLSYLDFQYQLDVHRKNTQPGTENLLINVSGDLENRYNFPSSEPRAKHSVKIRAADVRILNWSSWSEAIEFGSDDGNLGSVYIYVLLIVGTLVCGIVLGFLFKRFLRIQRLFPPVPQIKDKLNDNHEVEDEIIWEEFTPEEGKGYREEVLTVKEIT

human GM-CSF (human), sequence (P04141 18-144): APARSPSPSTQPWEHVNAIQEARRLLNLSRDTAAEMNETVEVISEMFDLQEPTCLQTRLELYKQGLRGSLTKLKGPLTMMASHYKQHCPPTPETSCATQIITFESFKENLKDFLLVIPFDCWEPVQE

% inhibition at 5 µg/ml antibody (human GM-CSF (human) [1]) [%]	IC50 (pM) in TF-1 proliferation assay, human GM-CSF 0.25 ng/ml (human GM-CSF (human) [2]) [pM]	IC50 (pM) in TF-1 proliferation assay, human GM-CSF (E. coli) (human GM-CSF (human) [2]) [pM]	IC50 (pM) in TF-1 proliferation assay, human GM-CSF (HEK293) (human GM-CSF (human) [2]) [pM]	IC50 x-fold improved compared to BVD2-21C11, TF-1 proliferation assay (human GM-CSF (human) [2]) [fold]	IC50 (pM) in TF-1 proliferation assay, macaca GM-CSF (HEK293) [3] [pM]	median fluorescence value (MFL value) [4]	Substance
50	4320	625	54	1.5	190	–	MAB215 (antibody)
–	–	–	–	–	–	157	murine IgG MAB1006 (antibody)
